Data on one substance can be found in paper PMC5729044.

The target of the experiment is 1wa3-wt, the wild-type trimeric aldolase from which I3-01 was derived. Briefly: SEC.

Usually stoichiometry N stands for a count of units in the complex or per binding partner. Substance “1wa3-wt, the wild-type trimeric aldolase from which I3-01 was derived (enzyme)” displayed a stoichiometry N of 3.
